Reference: the supplement of paper PMC10126150
± gives the standard deviation of the averaged measurements.

Test system: ATP
Assay: switch fluorescence ratio, 500 uM ATP over buffer (Cy3 cluster intensity, sum of 5 cycles each) (fold (ratio)); higher = stronger signal-on switching upon ATP binding; sequences stand for … in TCGTCGGCAGCGTCAGATGTGTATAAGAGACAGTTTTTTTTTTTTTTTTTTTTTTTTT…TC
Conditions: aptamer strand: ATP DNA aptamer (quencher-CACCTGGGGGAGTATTGCGGAGGAAGG + anchor), 100 nM annealed; ATP concentration: 500 uM
In short: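 Values give the fluorescence ratio for each switch-domain sequence, averaged from per-cluster ratios of summed target-cycle to summed buffer-cycle Cy3 intensity. The Cy3-labelled switching-strand clusters sat on a modified Illumina MiSeq flow-cell, were annealed to 100 nM quencher-labelled ATP aptamer, and were imaged in selection buffer, then after 15 min with 500 uM ATP at 22 °C. Five cycles ran with NaOH stripping and re-annealing between them, and clusters outside 100-1000 RFU were excluded.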
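Also: ATP exposure 15 min at 22 °C before imaging.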

| Sequence | switch fluorescence ratio |
| --- | --- |
| GCTTTATTTT | 1.09 ± 0.19 |
| TAGCGGGTTG | 1.03 ± 0.036 |
| GGGGGCAACA | 0.973 ± 0.03 |
| TGTGGATGGT | 0.956 ± 0.019 |
| CTATGTAAAT | 1.01 ± 0.031 |
| CGTTCTGAGT | 0.955 ± 0.016 |
| TTAGTACTGC | 1.03 ± 0.02 |
| GCGGCCTTAC | 2.42 ± 0.4 |
| TGTTGGGCGG | 0.969 ± 0.026 |
| AAACGATGTG | 0.985 ± 0.023 |
| ATCGAGAGGG | 1.01 ± 0.04 |
| CAACTTTAGT | 1.031 ± 0.0035 |
| TTCCTTATTA | 1.02 ± 0.011 |
| ACTCAGTTGT | 1.06 ± 0.059 |
| TTTCGTTAAC | 1.06 ± 0.028 |
| AAAGGTGGGG | 1.001 ± 0.01 |
| GGGGTAGCGT | 0.99 ± 0.03 |
| TTTTCAGCTG | 1.03 ± 0.016 |
| TTGTCCTTTG | 0.993 ± 0.013 |
| ATGGGAGATG | 0.983 ± 0.0045 |
| AATGAAGGCA | 1.005 ± 0.0049 |
| TATCGCGAAT | 1.01 ± 0.021 |
| GTTTTTTCGG | 0.993 ± 0.023 |

| Sequence | switch fluorescence ratio |
| --- | --- |
| TTTCGTGAAA | 0.9975 ± 0.0019 |
| AGAAAGGATT | 1.01 ± 0.021 |
| TCTGGTGAAA | 1.02 ± 0.054 |
| TTTCGGGGGT | 1.07 ± 0.25 |
| GGGGATGTGG | 0.99 ± 0.037 |
| ATTGGGAGAT | 1.024 ± 0.0064 |
| GATATGTTTT | 1 ± 0.035 |
| GAGGACTCGT | 1.01 ± 0.016 |
| AAGAAGTTTT | 1 ± 0.035 |
| TGGTAAAGTG | 1.08 ± 0.1 |
| AAGAAGGAAC | 1 ± 0.02 |
| GGTGGGGTTT | 0.999 ± 0.054 |
| TTTTGGGGGT | 1.03 ± 0.096 |
| GAATGTAGGG | 0.967 ± 0.046 |
| GATCGTTTTA | 1 ± 0.022 |
| GAATTAAATG | 1.037 ± 0.0019 |
| AGGCGCGGTG | 1.03 ± 0.0079 |
| CGGGTAAGTA | 1.03 ± 0.097 |
| TAATTAGGGG | 1.06 ± 0.083 |
| AGTTTTCATT | 1 ± 0.049 |
| GCGATAAGAT | 1.0048 ± 0.00093 |
| AGAGTTATTG | 0.998 ± 0.018 |
| AAATCATTGG | 1.01 ± 0.026 |

| Sequence | switch fluorescence ratio |
| --- | --- |
| GTATTGGGGG | 1.01 ± 0.043 |
| TAAATGGGTG | 1.03 ± 0.028 |
| ATTACTGTGC | 0.94 ± 0.02 |
| TTTTACTAAA | 1.06 ± 0.036 |
| CGTGGGCGCC | 0.972 ± 0.026 |
| AAGCCTATTG | 0.961 ± 0.017 |
| TCGGGAACAG | 1.02 ± 0.035 |
| TGGGGAATAA | 1.01 ± 0.022 |
| AATGGGAAGG | 0.971 ± 0.028 |
| AACATGTCCT | 1.04 ± 0.031 |
| CTCAAGACGG | 1.06 ± 0.012 |
| ATTTTAGCGT | 0.9958 ± 0.0062 |
| TGATGGCAAC | 1.11 ± 0.036 |
| GGGTTGTATT | 0.991 ± 0.031 |
| TGTTAGTGGC | 1 ± 0.04 |
| TGTGTTTATT | 1.051 ± 0.008 |
| TTTTGTTTTA | 1 ± 0.015 |
| AGAATAAGAC | 1.02 ± 0.085 |
| TTTCTAGGTT | 1 ± 0.041 |
| ACTTCAGGGG | 1.13 ± 0.1 |
| TCAAATAGTT | 0.997 ± 0.0026 |
| CCGTGGTATA | 1.151 ± 0.0068 |
| GTTGTTAATT | 1.01 ± 0.029 |

| Sequence | switch fluorescence ratio |
| --- | --- |
| CGAGGGGTTC | 0.9908 ± 0.0044 |
| GTTTGTAGAG | 0.993 ± 0.026 |
| GTTTGTGGGA | 0.974 ± 0.019 |
| TAGCACGGAT | 1.02 ± 0.038 |
| TTTAAGGTTT | 0.998 ± 0.013 |
| GGGGATAGGC | 1.01 ± 0.023 |
| ATAGTGACGT | 0.9826 ± 0.0075 |
| GGTAAACGCG | 0.977 ± 0.016 |
| TACCAGGGTA | 1.05 ± 0.047 |
| CTGAGTGGGA | 1.02 ± 0.013 |
| ACAACGGGTG | 2.1 ± 0.24 |
| TACAGGTTGG | 1.03 ± 0.037 |
| AAAAGGGGGG | 1.02 ± 0.044 |
| TAGTTAGTGT | 0.981 ± 0.013 |
| GATGGGGTGG | 1 ± 0.016 |
| GTATGGCGGG | 1.008 ± 0.0032 |
| CGTGCCGATC | 1.01 ± 0.013 |
| TATCATAGCC | 1.02 ± 0.027 |
| GATCTTGTTT | 0.976 ± 0.018 |
| GCCGGCTGTG | 0.9902 ± 0.0018 |
| TTATTTGTGG | 0.97 ± 0.02 |
| ATGTGGCCTA | 0.986 ± 0.034 |
| GATTGGGGGC | 1.04 ± 0.12 |

| Sequence | switch fluorescence ratio |
| --- | --- |
| CGCTGTATCG | 0.996 ± 0.043 |
| TGCATATAAT | 1.018 ± 0.0014 |
| GCAGAAAAAA | 0.988 ± 0.028 |
| AAAGGCGTAT | 1.008 ± 0.0036 |
| TATTTGAGCA | 0.995 ± 0.026 |
| TAGAGGGGGA | 0.987 ± 0.018 |
| AATTTTAGGA | 0.98 ± 0.028 |
| GAAGGTTTGG | 0.981 ± 0.03 |
| GGATTTGTGT | 1.01 ± 0.034 |
| ACGGATTTAG | 1.024 ± 0.01 |
| TTGTGTATTT | 1.001 ± 0.0098 |
| CGTCTGGCTG | 1 ± 0.057 |
| GAGTCGGATG | 0.967 ± 0.012 |
| GGTAACATGG | 1.01 ± 0.021 |
| CCTGTGAGTT | 0.986 ± 0.012 |
| GTTATGCTAT | 0.996 ± 0.017 |
| GCTTTTTAAA | 0.95 ± 0.016 |
| ATTTTAGAAC | 1.013 ± 0.0031 |
| TTAAGGGTTT | 1.01 ± 0.047 |
| ATAATTTCTG | 0.99 ± 0.016 |
| TTTTGGAGAT | 1.01 ± 0.027 |
| CGATCGGATG | 1.03 ± 0.023 |
| GTGATAATGG | 1.037 ± 0.0077 |

| Sequence | switch fluorescence ratio |
| --- | --- |
| CATGGGTTCG | 1 ± 0.0066 |
| TTTTGCCGAT | 0.989 ± 0.023 |
| TGGTTAGTGT | 1.01 ± 0.057 |
| GGTTAGGCGC | 0.993 ± 0.012 |
| TTGGGGACGG | 1 ± 0.038 |
| AAGTTAGTTA | 1.03 ± 0.02 |
| TCCCTAACAC | 1.12 ± 0.023 |
| GGGGGAGCAC | 0.997 ± 0.017 |
| TGGGGGAGGC | 0.973 ± 0.042 |
| AGGTAGGACT | 1 ± 0.014 |
| TGAATAAAGC | 1.05 ± 0.02 |
| GATTCCAGTT | 1.01 ± 0.032 |
| CCCTAGGCTT | 1.13 ± 0.018 |
| GCGCTTTTTT | 0.9898 ± 0.00075 |
| TACATTTGGG | 0.992 ± 0.021 |
| CTGTATTATA | 0.996 ± 0.031 |
| ACGAAAATTT | 1.05 ± 0.13 |
| TTTACTTAGC | 1.04 ± 0.026 |
| TTAATCTACT | 1.01 ± 0.015 |
| TTTATAAGGC | 0.983 ± 0.061 |
| GTTGGGTAGT | 0.9962 ± 0.006 |
| GAAGGGCAAG | 1.02 ± 0.038 |
| AACTGTGTAC | 1.056 ± 0.0085 |

| Sequence | switch fluorescence ratio |
| --- | --- |
| AGCTGGCTGT | 0.9735 ± 0.0037 |
| GTTTAAAGTG | 1 ± 0.026 |
| TATACGGCCG | 1 ± 0.0059 |
| TAGAAAGGGC | 1.01 ± 0.08 |
| TTTAACTAGC | 1.034 ± 0.0063 |
| TTTGGGCCCG | 0.9936 ± 0.0014 |
| GCACTAAACT | 1.05 ± 0.057 |
| TGAAATGATG | 0.9977 ± 0.0082 |
| TCGGGGCCAT | 1.02 ± 0.062 |
| AATTGCCAGA | 1.02 ± 0.02 |
| GAAGTGAGCG | 1.028 ± 0.0063 |
| GGGACCCAGC | 0.992 ± 0.039 |
| ATAAAAATAT | 1.01 ± 0.035 |
| GAGGATCAGG | 1.03 ± 0.056 |
| GTTGGTTCCG | 0.996 ± 0.022 |
| CGCCGTCTCA | 1.02 ± 0.042 |
| TTTATAACGG | 0.988 ± 0.038 |
| AGCACTGGGA | 1.04 ± 0.029 |
| ATATAATAGG | 0.9778 ± 0.0022 |
